B1: bromelain (stem bromelain, EC 3.4.22.4), affinity purified from Sigma bromelain, pineapple (Ananas comosus) stem (Ananas comosus) (protein)
chain: AVPQSIDWRDYGAVTSVKNQNPCGACWAFAAIATVESIYKIKKGILEPLSEQQVLDCAKGYGCKGGWEFRAFEFIISNKGVASGAIYPYKAAKGTCKTDGVPNSAYITGYARVPRNNESSMMYAVSKQPITVAVDANANFQYYKSGVFNGPCGTSLNHAVTAIGYGQDSIIYPKKWGAKWGEAGYIRMARDVSSSSGICGIAIDPLYPTLEE
notes: purchased Sigma B 5144
B2: ananain, cysteine proteinase purified from pineapple (Ananas comosus) stem extract (Ananas comosus) (protein)
chain: VPQSIDWRDSGAVTSVKNQGRCGSCWAFASIATVESIYKIKRGNLVSLSEQQVLDCAVSYGCKGGWINKAYSFIISNKGVASAAIYPYKAAKGTCKTNGVPNSAYITRYTYVQRNNERNMMYAVSNQPIAAALDASGNFQHYKRGVFTGPCGTRLNHAIVIIGYGQDSSGKKFWIVRNSWGAGWGEGGYIRLARDVSSSFGLCGIAMDPLYPTLQS
notes: from tissue; host or cells: pineapple stem extract (from the earlier reading)

Columns and labels:
Assay type in all cases: biochemical, Ananas comosus
[1] = substrate: Cc1cc(=O)oc2cc(NC(=O)[C@H](CCCNC(=N)N)NC(=O)[C@H](Cc3ccccc3)NC(=O)OCc3ccccc3)ccc12; assay: Kinetics of hydrolysis of fluorimetric substrates by bromelain; details: other: bromelain, 40° C., pH 6.8 buffer, 0.007% Brij 35, substrate 2 to 100 μM, spread = standard deviation
Procedure: (§1) The enzymes used were affinity purified ananain and comosain (Examples 1 and 2) and bromelain, which was obtained from chromatography-purified Sigma bromelain (catalogue number B 5144) by affinity chromatography on a column of Sepharose-aminohexanoyl-Gly-Phe-Gly-semicarbazide, followed by dialysis into 1 mM EDTA and lyophilisation. The proteinases were standardised by E-64 titration as described in Example 8.
(§2) Ananain used for this example was obtained by the method described in Example 1: the bromelain used was as in Example 4.
(§3) For the determination of kinetic parameters Km (the Michaelis Constant) and kcat (the turnover number) of hydrolysis of Z-Phe-Arg-NHMec and Z-Arg-Arg-NHMec, measurements of the initial rates of reaction were made in 0.007% Brij 35 at 40° C. The enzymes (1×10^-11 M to 1×10^-9 M final concentration of activatable enzyme as determined by active-site titration) were activated in 0.75 ml of 4-fold concentrated buffer in a fluorimetric cuvette at 40° C. for 2 min, to which pre-warmed 0.01% Brij was added, followed by substrate to a final volume of 3.0 ml. Continuous rate assays were carried out using a temperature-controlled cell, with stirring, in the fluorimeter ([…]), standardized so that 1000 arbitrary units corresponded to 0.2 μM coumarin (i.e. at most, 10% substrate hydrolysis). Substrate concentration(s) used were in the range 2 to 100 μM. Visual inspection of the data was performed using the direct linear plot and plots of s/v against s (v being the rate of product formation). (Henderson, P. J. F., Techniques in Protein and Enzyme Biochemistry, B113, 1-43, 1978). Values of Km and Vmax (the maximum rate of product formation at a given enzyme concentration) were calculated by the method of Wilkinson, G. N., Biochem. J., 80, 324-332, 1961.

[2] = substrate: Cc1cc(=O)oc2cc(NC(=O)[C@H](CCCNC(=N)N)NC(=O)[C@H](CCCNC(=N)N)NC(=O)OCc3ccccc3)ccc12; assay: as above; details: other: bromelain, 40° C., pH 6.8 buffer, 0.007% Brij 35, substrate 2 to 100 μM, spread = standard deviation
Procedure: as §1, §2, §3

[3] = substrate: Cc1cc(=O)oc2cc(NC(=O)[C@H](CCCNC(=N)N)NC(=O)[C@H](Cc3ccccc3)NC(=O)OCc3ccccc3)ccc12; assay: Kinetics of hydrolysis of fluorimetric substrates by ananain; details: other: ananain, 40° C., pH 6.8 buffer, 0.007% Brij 35, substrate 2 to 100 μM, spread = standard deviation
Procedure: as §3, with “used for this example was obtained by the method described in Example 1: the bromelain used was as in Example 4. For” for “For”

[4] = substrate: Cc1cc(=O)oc2cc(NC(=O)[C@H](CCCNC(=N)N)NC(=O)[C@H](CCCNC(=N)N)NC(=O)OCc3ccccc3)ccc12; assay: as above; details: other: ananain, 40° C., pH 6.8 buffer, 0.007% Brij 35, substrate 2 to 100 μM, spread = standard deviation
Procedure: as §3, with “used for this example was obtained by the method described in Example 1: the bromelain used was as in Example 4. For” for “For”

| Protein | Km [1] | kcat [1] | kcat/Km [1] | Km [2] | kcat [2] | kcat/Km [2] | Km [3] | kcat [3] | kcat/Km [3] | Km [4] | kcat [4] | kcat/Km [4] |
| --- | --- | --- | --- | --- | --- | --- | --- | --- | --- | --- | --- | --- |
| B1 | 83.1 (±14.1) μM | 0.14 (±0.01) s^-1 | 0.0016 (±0.0003) s^-1 · μM^-1 | 15.4 (±2.8) μM | 27.3 (±1.9) s^-1 | 1.77 (±0.37) s^-1 · μM^-1 | – | – | – | – | – | – |
| B2 | – | – | – | – | – | – | 48.3 (±4.8) μM | 7.07 (±0.3) s^-1 | 0.146 (±0.02) s^-1 · μM^-1 | 44.5 (±9.0) μM | 0.323 (±0.03) s^-1 | 0.007 (±0.002) s^-1 · μM^-1 |
